This note sets out measurements from patent publication US10874712B2, “Methods, compounds and compositions for modulating blood brain barrier integrity and re-myelination” (University Health Network, priority 2015, dated 2020).

The test system of test [1] is EAE-induced mice. The test can be described thus: Experimental Autoimmune Encephalomyelitis (EAE) mouse model, body condition score. Format: in vivo. More on the design: clinical severity (body condition score): dose or concentration left out as unconfirmed.
In test [2] the test system is rats subjected to MCAO. The test can be described thus: MCAO, neurological deficit (Bederson test). Conditions: tail-vein injection of 70 μg, 7 day period, vs PBS. It counts as in vivo, rat. The procedure: In a separate experiment, whether RGMc treatment, which prevents BBB disruption following stroke, could lead to functional recovery (FIG. 25) was studied. Rats were subjected to MCAO and treated with either tail-vein injection of 70 μg of RGMc or control (PBS).

Test [3] has as its system rats subjected to MCAO. The test can be described thus: Middle Cerebral Artery Occlusion (MCAO), Evans Blue BBB integrity. Format: in vivo, rat. The following applies: daily tail vein injection of 70 μg, seven days following MCAO. The procedure:
The possibility that RGMc may also restore BBB integrity following stroke was also tested. Middle Cerebral Artery Occlusion (MCAO) was performed in rats, which were treated with a daily tail vein injection of 70 μg of RGMc or PBS (control). Seven days following MCAO, animals received injection of Evans blue to monitor BBB integrity (FIG. 24). To measure BBB integrity, the amount of Evans Blue Dye/g of brain tissue was measured. […] This effect was also quantitated: brains were homogenized and the amount of Evans Blue quantified per gram of wet brain (FIG. 24, B).

Test [4] has as its system mice with passively induced EAE. The test can be described thus: Adoptive transfer EAE, infiltration of CellVue-labelled cells into spinal cord. Format: in vivo, mouse. The following applies: treated every 3 days; sacrificed day 8 after transfer; vs PBS. The procedure: Briefly, donor animals were immunized with 100 ug MOG(35-55) and sacrificed at day 10. Splenocytes were harvested and re-stimulated for 3 days with 33 ug/mL MOG(35-55) in the presence of 20 ng/ml rmIL-23. Cells were then labelled with CellVue Maroon and injected into recipient animals treated with RGMc or vehicle as well as PTx on day 0 and day 2. Recipient animals were treated every 3 days and sacrificed on day 8 and spinal cords sectioned for immunofluorescence staining.
Having shown that RGMc levels regulate the extravasation of molecules through the BBB, its role on cellular infiltration was evaluated. To do so, adaptive transfer using spleenocyte cells from MOG treated animals was performed. After collection of splenocyte cells were re-stimulated for 3 days with MOG, stained with Cellvue Maroon and injected into recipient mice treated with pertussis toxin. Following injection, animals received either PBS (Control) or RGMc every 3 days. Eight days after transfer animals were sacrificed and cellular infiltration was monitored using Cellvue-reporter. […] Thus, treatment with RGMc prevented T cell infiltration towards the CNS.

Test [5] concerns splenocytes and lymph node cells of EAE-induced mice. Description: Flow cytometry of splenocytes and lymph node cells of treated EAE mice. It counts as in vivo, mouse. The procedure:
Mice were euthanized at day 10 post-induction of EAE. Freshly isolated spleens and draining caudal lymph nodes (LN) were pressed using a syringe plunger through a 70 μm cell strainers and washed twice using 2 mL of 2% FBS in complete RPMI-1640 medium (Invitrogen) supplemented with […], L-glutamine, p/s, and non-essential amino acids. Single-cell suspensions were lysed with 7 mL of red blood cell (RBC) lysing buffer (Life Technologies) and centrifuged at 700 rcf for 5 mins. After washing three times with 2% RPMI-1640 medium, cells were counted and cultured as described below or were subjected to cell surface staining.
The expression of cell-surface markers and cytokine expression on splenocytes and LN cells were characterized by flow cytometry. For analysis of naïve cells, 5×10^5 RBC depleted splenocytes and LN cells were plated in 96-well V-bottom plates (Starstedt) and blocked with 50 μl of 1% mouse IgG in 2% FBS PBS supplemented with azide (PFN3) for 20 min at 4° C. Cells were then stained with the following primary conjugated antibodies from BioLegend for 30 min on ice: CD5 (53-7.3), CD3 (145-2C11), CD4 (GK1.5), CD8 (53-6.7), CD19 (6D5), CD11b (M1/70), CD11c (N418), CD80 (16-10A1), CD86 (GL-1), CD44 (IM7), MHCII (M5/114.15.12), CD62L (MEL-14), ICAM-1/CD54 (3E2), IL-17A (TC11-18H10.41), IFN-γ (XMG1.2). All antibodies were re-suspended in PFN3. When required, cells were washed twice with 100 μl of PFN3 and stained with secondary SA-APC, SA-APC-Cy7, SA-PeCy7, or SA-Percp-Cy5.5 for 30 min on ice. Cells were then washed twice with PFN3 and re-suspended in a PFN3 solution containing propidium iodide (PI) before proceeding to FACS analysis.
To examine intracellular cytokine production, 0.5×10^6 RBC-depleted splenocytes and LN cells were plated on 96-well flat bottom plates (BD Biosciences) in 10% FBS in complete RPMI-1640 in the presence of 0.5 μg/mL phorbol 12-myrisate 13-acetate (PMA), 0.5 μg/mL Ionomycin, and Golgistop (BD Biosciences) for 4 h. Cells were subsequently washed in PBS and stained with Near-Infrared Live Dead (Life Technologies) as described in the manufacturer's protocol. Cells were then washed twice in PFN3 and stained for cell surface markers as described previously. Cells were then fixed with 100 μl of Cytofix/Cytoperm solution as per manufacturer's protocol. For intracellular staining, cells were then stained with anti-IL-17A, and anti-IFN-γ for 30 min on ice, washed twice, and re-suspended in PFN3 before proceeding to FACS acquisition. Nonspecific background staining was determined by using fluorochrome-matched isotype antibodies and fluorescence minus one control. […] For each experiment, at least 100,000 live events were acquired and analyzed using Flowjo software (Tree Star Inc.).

For test [6], the system named is Claudin 5 in b.End3 cells. The test can be described thus: Claudin 5 expression in endothelial cells by Western blot. Format: cell-based, mouse. The following applies: incubation with RGM proteins, vs PBS. The procedure: Cells were pretreated for 6 h with PBS, RGMc, RGMa or RGMc+RGMa. Western blotting was performed on the lysates with Claudin-5 and GAPDH antibodies.
Next, the BBB permeability was assessed by injecting mice with BSA, RGMa, RGMa plus RGMc and subsequently followed by assessment of Texas dye leakage using widefield imaging as an indication of BBB integrity. […] Thus, Claudin 5 expression following RGMa/c treatments of murine-derived brain endothelial cells (b.End3) was studied. B.En3 cells were grown up to 80% confluency and were treated with overnight incubation with RGM proteins.

Setting [7] is: intra-peritoneal injections, vs vehicle.

B1: sRGMc: truncated form of RGMc with the GPI anchor sequence removed, released as a soluble protein (SEQ ID NOs: 1 and 3) (protein, listed as Homo sapiens)
chain: CKILRCNAEYVSSTLSLRGGGSSGALRGGGGGGRGGGVGSGGLCRALRSYALCTRRTARTCRGDLAFHSAVHGIEDLMIQHNCSRQGPTAPPPPRGPALPGAGSGLPAPDPCDYEGRFSRLHGRPPGFLHCASFGDPHVRSFHHHFHTCRVQGAWPLLDNDFLFVQATSSPMALGANATATRKLTIIFKNMQECIDQKVYQAEVDNLPVAFEDGSINGGDRPGGSSLSIQTANPGNHVEIQAAYIGTTIIIRQTAGQLSFSIKVAEDVAMAFSAEQDLQLCVGGCPPSQRLSRSERNRRGAITIDTARRLCKEGLPVEDAYFHSCVFDVLISGDPNFTVAAQAALEDARAFLPDLEKLH
On to B1, for which, in test [1] (setting [7]), the disease severity result was “significantly abrogated disease severity”, the “incidence of EAE onset” value is recorded as “decreased the incidence of EAE onset” and the onset of disease entry is “delayed the onset of disease”. Further, in test [1] (intravenous sRGMc at days 3, 6 and 9), the “day by which treated animals developed clinical symptoms” value is not above 14 day post-induction. For the same molecule, the “clinical severity of the disease (body condition score)” value in test [1] (intravenous sRGMc at days 3, 6 and 9 post-induction, vs vehicle, scored 18 days) is reported as “significant decrease in clinical severity”. In addition, the “clinical severity (body condition score)” value in test [1] (sRGMc every three days, vs PBS, FIG. 6B) was “markedly reduced”. Moreover, the “functional scores (Bederson test)” value in test [2] is given as “significant (*p<0.05) improvement of functional scores”. Moreover, the “reduction in Evans Blue levels in the brain compared to PBS-treated animals” value in test [3] came to 3 fold. Besides, the “Evans Blue extravasation into the CNS, visual inspection” value in test [3] (vs control) was “strongly reduced”. Besides, the “accumulation of Cellvue+ cells within the spinal cord” value in test [4] is “did not show accumulation”. Also, in test [5] (PMA and ionomycin stimulated, EAE mice day 10), the “expression profile of IL-17 and IFN-γ secreted by CD4+ T cells” value was “no effect”. For the same molecule, the “expression of adhesion markers (ICAM-1 and CD62L) on CD4+ and CD8+ T cells and B cells” value in test [5] (naive splenocytes and lymph node cells, vs vehicle) was “does not affect”. For the same molecule, in test [5] (splenocytes day 10, vs vehicle), the “distribution of effector cells (CD3+, CD8+, CD4+ T cells)” value is reported as “does not alter”; the “distributions and activation of dendritic cells (CD11c+) and B cells (MHC II, CD80+/CD86+)” value is listed as “unaltered”. The “Claudin 5 levels” value in test [6] was “did affect Claudin5 levels”.
